The values below come from patent US20070037211A1 (COUNCIL OF SCIENTIFIC AND INDUSTRIAL RESEARCH CSIR, published 2007).

For the assay, the target named is T1, Hsp16.3, 16 kDa alpha-crystallin like heat shock protein of Mycobacterium tuberculosis, recombinant … (Mycobacterium tuberculosis, UniProt P9WMK1 1-144).
T1 construct: also called M. tuberculosis Acr; not shown: pQE-8 vector-derived residues flanking the 6xHis tag
T1 sequence: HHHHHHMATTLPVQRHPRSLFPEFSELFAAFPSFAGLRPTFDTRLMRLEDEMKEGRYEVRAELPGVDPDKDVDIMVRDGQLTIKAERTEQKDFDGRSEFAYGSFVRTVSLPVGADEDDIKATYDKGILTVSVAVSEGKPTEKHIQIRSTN
Briefly: reverse phage ELISA on coated Hsp16.3, anti-M13-HRP, A405. For orientation: ELISA stands for enzyme-linked immunosorbent assay.

No end group written: not given here.

B1: M13 phage clone displaying peptide Seq ID 21 (Tyr-Pro-His-His-Phe-Lys-His-Arg-His-Ile-Pro-Ile), from Ph.D.-12 library (peptide)
peptide: YPHHFKHRHIPI
modifications: also: displayed on M13 phage, fused to coat protein
notes: Tested as whole phage particles in reverse phage ELISA; not shown: M13 coat protein to which the peptide is fused, and the spacer to it
With B1, the “fold binding over non-specific control BSA” value was roughly 3 fold.
